Assay results from patent US20260042817A1 (PROVIDENCE HEALTH AND SERVICES OREGON, published 2026).

Biological target: T1, recombinant TGFβ (Homo sapiens (Human), UniProt P01137 279-390, Active TGFβ is a disulfide-linked homodimer ('TGFβ exists as a dimer'). One protomer is given; the assay form is two identical copies.)
T1 construct: also called TGF-beta; transforming growth factor beta
Test: solution incubation of TGFβ (500 pg/mL) with a range of Fc:TβRII concentrations, 20 min at room temperature; remaining unbound TGFβ read on an anti-TGFβ1 ELISA plate
Procedure: The Fc:TβRII recombinant protein (glycosylated) was tested in vitro using enzyme-linked immunosorbent assay (ELISA) to verify a selective and high binding affinity for TGFβ. A known quantity of recombinant TGFβ (500 pg/mL) was incubated with a range of concentrations of Fc:TβRII in aqueous solution at room temperature for 20 minutes. Aliquots from each sample were applied to an anti-TGFβ1 ELISA plate to measure the remaining unbound TGFβ.

T1 sequence (P01137 279-390 limits assumed, form in doubt): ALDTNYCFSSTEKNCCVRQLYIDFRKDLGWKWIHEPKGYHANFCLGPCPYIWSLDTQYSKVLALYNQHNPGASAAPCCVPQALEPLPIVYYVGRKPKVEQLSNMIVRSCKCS

B1: Fc:TβRII recombinant protein (glycosylated) (Fc fusion)
chain: TIPPHVQKSVNNDMIVTDNNGAVKFPQLCKFCDVRFSTCDNQKSCMSNCSITSICEKPQEVCVAVWRKNDENITLETVCHDPKLPYHDFILEDAASPKCIMKEKKKPGETFFMCSCSSDECNDNIIFSEEYNTSNPDLLLVIFQSSSTMVRSVECPPCPAPPVAGPSVFLFPPKPKDTLMISRTPEVTCVVVDVSHEDPEVQFNWYVDGMEVHNAKTKPREEQFNSTFRVVSVLTVVHQDWLNGKEYKCKVSNKGLPAPIEKTISKTKGQPREPQVYTLPPSREEMTKNQVSLTCLVKGFYPSDIAVEWESNGQPENNYKTTPPMLDSDGSFFLYSKLTVDKSRWQQGNVFSCSVMHEALHNHYTQKSLSLSPGK
modifications: N-glycosylated (expressed in HEK 293T cells); sites not stated
notes: Purified on Protein A from HEK 293T supernatant; also called Fc:TβRII protein; unconjugated Fc:TβRII protein
IC50: 0.27 µg/mL
